Measurements taken from US20230167458A1, “FORSKOLIN-INDUCIBLE PROMOTERS AND HYPOXIA-INDUCIBLE PROMOTERS” (ASKLEPIOS BIOPHARMACEUTICAL, INC., priority 2020, published 2023).

B1: RTV-015: synthetic hypoxia-inducible promoter, SEQ ID NO: 81; 5 HRE1 elements spaced by 40 bp and minimal promoter MP1 (nucleic acid)
DNA: ACGTGCGATGATGCGTAGCTAGTAGTGATGATGCGTAGCTAGTAGTACGTGCGATGATGCGTAGCTAGTAGTGATGATGCGTAGCTAGTAGTACGTGCGATGATGCGTAGCTAGTAGTGATGATGCGTAGCTAGTAGTACGTGCGATGATGCGTAGCTAGTAGTGATGATGCGTAGCTAGTAGTACGTGCTTGGTACCATCCGGGCCGGCCGCTTAAGCGACGCCTATAAAAAATAGGTTGCATGCTAGGCCTAGCGCTGCCAGTCCATCTTCGCTAGCCTGTGCTGCGTCAGTCCAGCGCTGCGCTGCGTAACGGCCGCC
modifications: Synp-RTV-015
notes: 5 HRE1 elements spaced by 40 bp and minimal promoter MP1
B2: HV3C: synthetic hypoxia-inducible promoter, SEQ ID NO: 85/87; 4 HRE3 elements and CMV minimal promoter (nucleic acid)
DNA: GATCTTTGTATTTAATTAAGACCTTGAGTACGTGCGTCTCTGCACGTATGGCGATTAAGACCTTGAGTACGTGCGTCTCTGCACGTATGGCGATTAAGACCTTGAGTACGTGCGTCTCTGCACGTATGGCGATTAAGACCTTGAGTACGTGCGTCTCTGCACGTATGGCGATTAATCCATATGCAGGTCTATATAAGCAGAGCTCGTTTAGTGAACCGTCAGATCGCCTAGATACGCCATCCACGCTGTTTTGACCTCCATAGAAGATCGCCACC
modifications: Synp-HV3C
notes: 4 HRE3 elements and CMV minimal promoter
B3: RTV-019: synthetic forskolin-inducible promoter, SEQ ID NO: 44; 3× ATF6, 4× AP1(1) and 3× HRE1 TFBS and CMV-MP (nucleic acid)
DNA: TGACGTGCTGATGATGCGTAGCTAGTAGTTGACGTGCTGATGATGCGTAGCTAGTAGTTGACGTGCTGATGATGCGTAGCTAGTAGTTGAGTCAGATGATGCGTAGCTAGTAGTTGAGTCAGATGATGCGTAGCTAGTAGTTGAGTCAGATGATGCGTAGCTAGTAGTTGAGTCAGATGATGCGTAGCTAGTAGTCTGCACGTAGATGATGCGTAGCTAGTAGTCTGCACGTAGATGATGCGTAGCTAGTAGTCTGCACGTAGATGATGCGTAGCTAGTAGTGCAGTTAGCGTAGCTGAGGTACCGTCGACGATATCGGATCCAGGTCTATATAAGCAGAGCTCGTTTAGTGAACCGTCAGATCGCCTAGATACGCCATCCACGCTGTTTTGACCTCCATAGAAGATCGCCACC
modifications: Synp-RTV-019
notes: 3× ATF6, 4× AP1(1) and 3× HRE1 TFBS and CMV-MP

Key:
CHO-GSK1SV cell line = assay: SEAP expression and cell number in normoxia vs 24 h hypoxia, stably transfected CHO-GS-KSV1; type: cell-based, chinese hamster; settings: stably integrated CHO-GSK1SV
Procedure: Cell suspensions of 6×10^5 cells per mL are incubated on an orbital shaker set at 8% CO2, 20% O2, 37° C., 85% relative humidity and 140 rpm overnight. 2.86×10^7 cells were centrifuged at 200 g for 3 minutes. Media is then aspirated and cell pellet resuspended in 2 mL fresh CD-CHO media to obtain a concentration of 1.43×10^7 cells per mL. 700 μL of cell suspension was added to each of two electroporation cuvettes each containing […] of linearised DNA in 100 μL of sterile TE buffer (Thermofisher, 12090015). Each cuvette was electroporated, delivering a single pulse of 300V, […] with resistance to infinity. Immediately after delivery of pulse electroplated cells were transferred to Erlenmeyer 125 mL flask containing 20 mL of CD-CHO media pre-warmed to 37° C. Electroporated cells from two cuvettes are combined into a single 125 mL flask to generate one pool of cells. Cells are cultured on an orbital shaker set at 8% CO2, 20% 02, 37° C., 85% relative humidity and 140 rpm. Cells are transferred to fresh CD-CHO media 24 hours after transfection and cell cultures monitored and given fresh CD-CHO media every 2-4 days. Usually after about 10-14 days cell numbers will be high enough to start passaging. Cells were selected at 14 days and then expanded. Induction was performed once doubling time had returned to approx. 24 hrs. The cells assayed in this example were at passage number 15, 17, 19 and 21.
The transfected DNA was pXC-17.4 expression vector (Lonza Biologics plc) where one of the promoter constructs (RTV-015, HYBT, RTV-016, HV3C) or a control promoter (CMV-IE) have been cloned upstream of the SEAP gene, which had been cloned into the multiple cloning site within the vector expression cassette. Promoters were closed into the pXC-17.4 vector using Gibson assembly. The pXC-17.4 expression vector is designed for making stable cell lines in the CHO-GSK1SV cell line as it contains the […] gene which has been knocked out of the cell line. Therefore, selection of cells in glutamine drop-out medium will select for cells that have stably integrated the plasmid.
Stably transfected CHO-GS cells were seeded at 500,000 cells/ml and allowed to grow for 24 hrs, at this point the cells were counted and placed under hypoxic conditions as previously described. After 24 hrs, the cell numbers and the expression of SEAP was measured.
SEAP Reporter Gene Assay, chemiluminescent (Roche, CAT #11 779 842 001) was used to measured SEAP activity as per manufacturers protocol. All reagents and samples were fully pre-equilibrated at room temperature. Culture supernatant was collected from the stably transfected CHO-GS at the specific time points (0 h and 24 h). The supernatant was diluted 1:4 in dilution buffer and heat treated at 65° C. for 30 minutes. The heat-treated sample was then centrifuged for 30 s at maximum speed. 50 μl of the heat-treated sample was then added to 5 μl of inactivation buffer and incubated for 5 min at room temperature. 50 μl of substrate reagent was then added and incubated for 10 min at room temperature. The signal is then read at 477 nm and compared to a calibration curve. SEAP expression was normalized against cell number to ensure that the increase in activity was not due to increased cell numbers and was true induction. The result of this experiment can be seen in FIG. 16 and FIG. 17.

[1] = system: Huh7 human liver cell line; assay: Luciferase expression from promoters in pAAV vector (with ITRs) in Huh7, forskolin or NKH477 induction; parameters: fold induction with forskolin: dose or concentration left out as unconfirmed
Procedure: The forskolin-inducible promoters RTV-017, RTV-019 and FORCYB1 were then used to drive expression of luciferase in a pAAV vector in the Huh7 human liver cell line. […] This experiment was performed to investigate the effect of the Inverted Terminal Repeats (ITRs) on the activity of the promoters.
The cells were seeded, transfected and induced as described above. Luciferase expression was measured as described above. In this experiment, the cells were induced by using 20 pM forskolin or 7.2 pM of the water soluble derivative NKH477.

Molecule	SEAP activity in normoxia (CHO-GSK1SV cell line)	inducibility after 24 hours in hypoxia (rank) (CHO-GSK1SV cell line)	fold induction with forskolin ([1]; Huh7) [fold]	luciferase activity without induction (background) ([1]; Huh7)	fold induction with NKH477 ([1]; Huh7, 7.2 pM NKH477) [fold]	luciferase activity following induction ([1]; Huh7, or 7.2 pM NKH477)
B1	almost no SEAP activity	lowest				
B2	almost no SEAP activity	highest				
B3			98	low background activity	86	high activity
